Data published in paper PMC12808100, “The non-catalytic DNA polymerase ε subunit is an NPF motif recognition protein” (Nature Communications, 2025).

Key:
[1] = target: His6-AviTag-MBP-TEV-POLE2, P56282; experiment: nHU titration, dot blot; settings: chain shown with the change
[2] = target: triple NPF motif peptide made from the DONSON sequence (human); experiment: native holdup (nHU) titration with western blot; biotinylated peptide bait on streptavidin resin, bait-saturated and control (biotin) resin mixed at various proportions; total Jurkat extract as analyte; 4 °C, 2 h; endogenous POLE and EPS15 left in the supernatant quantified by western blot; apparent dissociation constants

Chain of His6-AviTag-MBP-TEV-POLE2, P56282 (P56282 whole entry): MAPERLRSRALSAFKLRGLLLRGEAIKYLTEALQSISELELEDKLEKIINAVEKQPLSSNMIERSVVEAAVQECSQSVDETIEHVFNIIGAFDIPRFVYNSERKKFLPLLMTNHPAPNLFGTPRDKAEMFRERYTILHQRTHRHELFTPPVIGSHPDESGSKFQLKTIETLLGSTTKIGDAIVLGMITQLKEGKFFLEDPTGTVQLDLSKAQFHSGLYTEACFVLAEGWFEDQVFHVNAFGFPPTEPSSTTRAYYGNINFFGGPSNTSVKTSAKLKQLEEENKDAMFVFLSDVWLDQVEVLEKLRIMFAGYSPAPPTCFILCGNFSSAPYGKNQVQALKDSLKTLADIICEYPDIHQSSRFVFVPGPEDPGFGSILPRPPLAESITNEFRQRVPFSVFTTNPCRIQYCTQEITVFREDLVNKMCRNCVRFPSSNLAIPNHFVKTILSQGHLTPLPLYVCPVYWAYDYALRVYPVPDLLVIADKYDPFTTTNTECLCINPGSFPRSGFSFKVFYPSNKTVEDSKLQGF

B1: HA-TTF2, full length, intact NPF motifs, Q9UNY4 NPF to KAF (protein)
chain: MEEVRCPEHGTFCFLKTGVRDGPNKGKSFYVCRADTCSFVRATDIPVSHCLLHEDFVVELQGLLLPQDKKEYRLFFRCIRSKAEGKRWCGSIPWQDPDSKEHSVSNKSQHASETFHHSSNWLRKAFKVLDKNQEPALWKQLIKGEGEEKKADKKQREKGDQLFDQKKEQKPEMMEKDLSSGLVPKKKQSVVQEKKQEEGAEIQCEAETGGTHKRDFSEIKSQQCQGNELTRPSASSQEKSSGKSQDVQRESEPLREKVTQLLPQNVHSHNSISKPQKGGPLNKEYTNWEAKETKAKDGPSIQATQKSLPQGHFQERPETHSVPAPGGPAAQAAPAAPGLSLGEGREAATSSDDEEEDDVVFVSSKPGSPLLFDSTLDLETKENLQFPDRSVQRKVSPASGVSKKVEPSDPVARRVYLTTQLKQKKSTLASVNIQALPDKGQKLIKQIQELEEVLSGLTLSPEQGTNEKSNSQVPQQSHFTKTTTGPPHLVPPQPLPRRGTQPVGSLELKSACQVTAGGSSQCYRGHTNQDHVHAVWKITSEAIGQLHRSLESCPGETVVAEDPAGLKVPLLLHQKQALAWLLWRESQKPQGGILADDMGLGKTLTMIALILTQKNQEKKEEKEKSTALTWLSKDDSCDFTSHGTLIICPASLIHHWKNEVEKRVNSNKLRVYLYHGPNRDSRARVLSTYDIVITTYSLVAKEIPTNKQEAEIPGANLNVEGTSTPLLRIAWARIILDEAHNVKNPRVQTSIAVCKLQACARWAVTGTPIQNNLLDMYSLLKFLRCSPFDEFNLWRSQVDNGSKKGGERLSILTKSLLLRRTKDQLDSTGRPLVILPQRKFQLHHLKLSEDEETVYNVFFARSRSALQSYLKRHESRGNQSGRSPNNPFSRVALEFGSEEPRHSEAADSPRSSTVHILSQLLRLRQCCCHLSLLKSALDPMELKGEGLVLSLEEQLSALTLSELRDSEPSSTVSLNGTFFKMELFEGMRESTKISSLLAELEAIQRNSASQKSVIVSQWTNMLKVVALHLKKHGLTYATIDGSVNPKQRMDLVEAFNHSRGPQVMLISLLAGGVGLNLTGGNHLFLLDMHWNPSLEDQACDRIYRVGQQKDVVIHRFVCEGTVEEKILQLQEKKKDLAKQVLSGSGESVTKLTLADLRVLFGI
B1 was tested, and the Kd [1] was 1.1 µM.

B2: HA-WDHD1, full length, intact NPF motif, O75717 NPF to KAF (protein)
chain: MPATRKPMRYGHTEGHTEVCFDDSGSFIVTCGSDGDVRIWEDLDDDDPKFINVGEKAYSCALKSGKLVTAVSNNTIQVHTFPEGVPDGILTRFTTNANHVVFNGDGTKIAAGSSDFLVKIVDVMDSSQQKTFRGHDAPVLSLSFDPKDIFLASASCDGSVRVWQISDQTCAISWPLLQKCNDVINAKSICRLAWQPKSGKLLAIPVEKSVKLYRRESWSHQFDLSDNFISQTLNIVTWSPCGQYLAAGSINGLIIVWNVETKDCMERVKHEKGYAICGLAWHPTCGRISYTDAEGNLGLLENVCDPSGKTSSSKVSSRVEKDYNDLFDGDDMSNAGDFLNDNAVEIPSFSKGIINDDEDDEDLMMASGRPRQRSHILEDDENSVDISMLKTGSSLLKEEEEDGQEGSIHNLPLVTSQRPFYDGPMPTPRQKPFQSGSTPLHLTHRFMVWNSIGIIRCYNDEQDNAIDVEFHDTSIHHATHLSNTLNYTIADLSHEAILLACESTDELASKLHCLHFSSWDSSKEWIIDLPQNEDIEAICLGQGWAAAATSALLLRLFTIGGVQKEVFSLAGPVVSMAGHGEQLFIVYHRGTGFDGDQCLGVQLLELGKKKKQILHGDPLPLTRKSYLAWIGFSAEGTPCYVDSEGIVRMLNRGLGNTWTPICNTREHCKGKSDHYWVVGIHENPQQLRCIPCKGSRFPPTLPRPAVAILSFKLPYCQIATEKGQMEEQFWRSVIFHNHLDYLAKNGYEYEESTKNQATKEQQELLMKMLALSCKLEREFRCVELADLMTQNAVNLAIKYASRSRKLILAQKLSELAVEKAAELTATQVEEEEEEEDFRKKLNAGYSNTATEWSQPRFRNQVEEDAEDSGEADDEEKPEIHKPGQNSFSKSTNSSDVSAKSGAVTFSSQGRVKAFKVSASSKEPAMSMNSARSTNILDNMGKSSKKSTALSRTTNNEKSPIIKPLIPKPKPKQASAASYFQKRNSQTNKTEEVKEENLKNVLSETPAICPPQNTENQRPKTGFQMWLEENRSNILSDNPDFSDEADIIKEGMIRFRVLSTEERKVWANKAKGETASEGTEAKKRKRVVDESDETENQEEKAKENLNLSKKQKPLDFSTNQKLSAFAFKQE
B2 showed a Kd [1] of 32 µM.

B3: HA-ERCC6L, full length, intact NPF motif, Q2NKX8 NPF to KAF (protein)
chain: MEASRRFPEAEALSPEQAAHYLRYVKEAKEATKNGDLEEAFKLFNLAKDIFPNEKVLSRIQKIQEALEELAEQGDDEFTDVCNSGLLLYRELHNQLFEHQKEGIAFLYSLYRDGRKGGILADDMGLGKTVQIIAFLSGMFDASLVNHVLLIMPTNLINTWVKEFIKWTPGMRVKTFHGPSKDERTRNLNRIQQRNGVIITTYQMLINNWQQLSSFRGQEFVWDYVILDEAHKIKTSSTKSAICARAIPASNRLLLTGTPIQNNLQELWSLFDFACQGSLLGTLKTFKMEYENPITRAREKDATPGEKALGFKISENLMAIIKPYFLRRTKEDVQKKKSSNPEARLNEKNPDVDAICEMPSLSRKNDLIIWIRLVPLQEEIYRKFVSLDHIKELLMETRSPLAELGVLKKLCDHPRLLSARACCLLNLGTFSAQDGNEGEDSPDVDHIDQVTDDTLMEESGKMIFLMDLLKRLRDEGHQTLVFSQSRQILNIIERLLKNRHFKTLRIDGTVTHLLEREKRINLFQQNKDYSVFLLTTQVGGVGLTLTAATRVVIFDPSWNPATDAQAVDRVYRIGQKENVVVYRLITCGTVEEKIYRRQVFKDSLIRQTTGEKKNPFRYFSKQELRELFTIEDLQNSVTQLQLQSLHAAQRKSDIKLDEHIAYLQSLGIAGISDHDLMYTCDLSVKEELDVVEESHYIQQRVQKAQFLVEFESQNKEFLMEQQRTRNEGAWLREPVFPSSTKKKCPKLNKPQPQPSPLLSTHHTQEEDISSKMASVVIDDLPKEGEKQDLSSIKVNVTTLQDGKGTGSADSIATLPKGFGSVEELCTNSSLGMEKSFATKNEAVQKETLQEGPKQEALQEDPLESFNYVLSKSTKADIGPNLDQLKDDEILRHCNPWPIISITNESQNAESNVSIIEIADDLSASHSALQDAQASEAKLEEEPSASSPQYACDFNLFLEDSADNRQNFSSQSLEHVEKENSLCGSAPNSRAGFVHSKTCLSWEFSEKDDEPEEVVVKAKIRSKARRIVSDGEDEDDSFKDTSSIKAFNTSLFQFSSVKQFDASTPKNDISPPGRFFSSQIPSSVNKSMNSRRSLASRRSLINMVLDHVEDMEERLDDSSEAKGPEDYPEEGVEESSGEASKYTEEDPSGETLSSENKSSWLMTSKPSALAQETSLGAPEPLSGEQLVGSPQDKAAEATNDYETLVKRGKELKECGKIQEALNCLVKALDIKSADPEVMLLTLSLYKQLNNN
With B3 the Kd [1] was 23 µM.

B4: EPS15 (natural protein)
chain: MAAAAQLSLTQLSSGNPVYEKYYRQVDTGNTGRVLASDAAAFLKKSGLPDLILGKIWDLADTDGKGILNKQEFFVALRLVACAQNGLEVSLSSLNLAVPPPRFHDTSSPLLISGTSAAELPWAVKPEDKAKYDAIFDSLSPVNGFLSGDKVKPVLLNSKLPVDILGRVWELSDIDHDGMLDRDEFAVAMFLVYCALEKEPVPMSLPPALVPPSKRKTWVVSPAEKAKYDEIFLKTDKDMDGFVSGLEVREIFLKTGLPSTLLAHIWSLCDTKDCGKLSKDQFALAFHLISQKLIKGIDPPHVLTPEMIPPSDRASLQKNIIGSSPVADFSAIKELDTLNNEIVDLQREKNNVEQDLKEKEDTIKQRTSEVQDLQDEVQRENTNLQKLQAQKQQVQELLDELDEQKAQLEEQLKEVRKKCAEEAQLISSLKAELTSQESQISTYEEELAKAREELSRLQQETAELEESVESGKAQLEPLQQHLQDSQQEISSMQMKLMEMKDLENHNSQLNWCSSPHSILVNGATDYCSLSTSSSETANLNEHVEGQSNLESEPIHQESPARSSPELLPSGVTDENEVTTAVTEKVCSELDNNRHSKEEDPFNVDSSSLTGPVADTNLDFFQSDPFVGSDPFKDDPFGKIDPFGGDPFKGSDPFASDCFFRQSTDPFATSSTDPFSAANNSSITSVETLKHNDPFAPGGTVVAASDSATDPFASVFGNESFGGGFADFSTLSKVNNEDPFRSATSSSVSNVVITKNVFEETSVKSEDEPPALPPKIGTPTRPCPLPPGKRSINKLDSPDPFKLNDPFQPFPGNDSPKEKDPEIFCDPFTSATTTTNKEADPSNFANFSAYPSEEDMIEWAKRESEREEEQRLARLNQQEQEDLELAIALSKSEISEA
For B4, the Kd [2] was 800 nM.
